The nature of the series: protease stability score; higher = more stable; yeast display proteolysis, trypsin and chymotrypsin.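 Also: relative to predicted unfolded state with 0 unfolded-like and 1 meaning tenfold more protease.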
For “DDEERWTEEMYRIMIHIEKTGDEHTFSRLADPNVRLIVGDKHFHGRETFIEQLRKLIEHIRVEKIEIRHVELVGEKVILVMKRLSRIDGREVELEVHVEIVIVNGRYKMIRIEIR”, the protease stability score was found to be 1.43.
The result for “DDEHEHYRRQTKLVEDLFLTGDWDKIFRLLDPHVRMEINGRQHIGRERVTTEFKQHIEDLGIDHVEIKRSHVQGEKMHLDGVIEFNGRKQSSELIIVIIDGVWHSIVVQLH” reads 1.09; that for “DDEHHDAVRVIEEFVTSVLTGNWEILKELLDPNVKFEIDGREIWGREFVNREIEEIRIRSRMEVRSVRFQGEKMEVDTEYNVDLNIGDKRFHYRRSTRVILEKYDGRWRIQSFHFE”, 0.284; that for “DDEIRFLFKIAHLWMRSHSTGDERVLEHLMDPHVRIDFNGVELHGWKDMLTEWKEIRIIIEHVEIDHYDVQGDKMELNGRISGTFHFNGRTRTTDFRSELRFTVINGKLHSVEIHYR”, 1.41.
Take “DDEKARQQVREFIRAMETGDEDSMVQQLDENAHVHIGDHVWRGREQARNAFKEFVKQFDRIEVKRVEYRNGDVVIDAVANVNGVRVRIIFKIHIHNGRIKNLRIEYRDEEEKKQLDG”: the protease stability score was determined as 2.29.
In turn, “DDEKEEVERLARLFIHYVLTGDEDTLREMVDPNVRIRIGDKRNHGMKFLLHLITVWLERVDHVRIEVDESRLVNGQLNMTGTLHLHQGDKTQELRTRSHLVIVNGVMKEITFEYD” came in with a protease stability score of 2.06.
In the case of “DDEKEILRIAIEWSELVSNTGDEKTVEHLADPHVRIHYGDKDYVGRERMVEFVHRFKNLKLEIKDTDVQGEYIHVNGKMKFNGRTFDVEIVVFKIDGVWFEKSVEFK” it was 1.38; in that of “DDEKEITHTLSEIWIHTVRTGDEDTATNLVDPHARLDYNGREFHGRELISELMIRHLTEWRITHIHIDHVRVINGRFEIHSHQDGHFDGVRRKVEVHIDIIIIDGVVKEIRIRVH”, 1.17; in that of “DDEKKHALEVVRKYFRAFLTGDEDESFELMDPRVKVDINGRDIHGWEEYRKWMEEIRIHDHRVKEEHFRVYDGRLIIIIRGELNGEINGRRFEFEFNIIIVVAKVDGQWRTESFKMEIH”, 1.31.
The result for “DDEKREMVEMLKIFIHNFLTGDWRTMEKLLDPDARFIINGQTFHGREWVRHSLHVFLHQFEHIHHIVIHDIDLQGDKVNIDGKLDGTVNGKRRLLDSHWHLRVVNGRVKEIEIHIH” reads 2.12; that for “DDEKRFTHEAIKTSEEVMKTGDERLMRELMDPNVRSEIDGRDVHGMDIITEWLSHIRIEDIKLRRITVIDGVITIRGEVYFEQGDKIVTFDVTIIYEKIDGRWLLRSLHVK”, 1.53.
In the case of “DDEKRWLEELWKDIQRADETGDEEHFLHLADPHVRFHVNGRDVHGMELVAHILLKWLNEIRIKDFRLKDMRMFENHLRVDGSIVLIVNGQEIETDMILRFEVVNGRIKDREIDIR” it was 1.37; in that of “DDELKTTHKFAKEFVDQLTTGDWEWHDKLFDPDARMSMIIDGREVRLHGREELTRWHLKVFEDLGIERVHSRYEHMHVVDGQIHFRGVLEFNGQRREFHIDMRIVDGRMHEFHEIHN”, 0.329; in that of “DDENKFWKEFMDIWVRSLETGNEEELAKLIDPHARLHVNGVENHGREIVLKWFHHHLKHAGVDHRTFHDMRVFDGVNFIDGTLHVNGVTREIRLKVYVVNGVVESEEVRIH”, 1.03.
As to “DDENKQMEEAIWIWKYMVETGDERINHEFADPHARVDINGKEHHGREEIERFLIEFSEKVKNLRVEIEDFRSINGRVDVILRLTVNGKRVETRVHAIKVDGKWLIKEVRFH”, the protease stability score was 0.624.
In the case of “DDEREEAKRAIEDLVRDLETGNWKHLHEFLDPNVRIRVGDKDIHGREEATHHLRRLHEKFKNLKVIIEHVDIVGNKIIEHGHIEIGDKSMEVEIIIIKINGRWYIKEIHIK” it was 1.6; in that of “DDERRDTKLAIDLWVETWHTGDEQMFEDLADPHTRIIIGDKEHVGREEAVRYSSELIRRLGANHVDVTFRETRMYNGRIDVKGEINLHIGDKDHHREVHVYSRKIDGRWVLERIEFR”, 1.3.
The result for “DDERRHTEKVLELWTRFLYTGDEHRMSELLDPNTQLRVGDKDLHGWHLFVHFISELIRKLGVDHLEVELKHADIINGRAELHVKFHFHTENHHTTINIIFFYEKIDGVWLIKSIEIK” reads 2.04.
In turn, “DDESEHSMKVFRFWAEARETGDEDTLTRLLDPHARLIQGDKHIIGREEWTRIIKERREQYGVKHIHFHIQDMRIFNGRVHLKVHYEIKFDGQSVTIDSEIIITKVDGRWYFESETKR” registered a protease stability score of 1.11.
The result for “DDESEKAEHIYELLTRLMLTGDEQIIHKLMDPNVRLDVDGQEYHGREEVVSAWRRWLKEMGVDHLELKSVRLIFFNGQLHIHINGEVRFNGRKHRVHIRLVLRKIDGVWHLEELEVEYK” reads 1.92; that for “DDETDRSEKVAQMFVDLLTTGDWERLRHLMDPHVRMDINGQESHGRENVFRFFQKIRERLGLDRFHIEVTHIDVQGDKALWHGTLNINGQEHEVIIRIDVVDGRWHEVRMEVR”, 2.62; that for “DDETEHLEKSVRDLVTSIKTGNWEEFYKMFDPNMRVDINGQQYHGRENAVEMVRQLWERLGAKHVHLTEIRYYGDKLELIMHVHFDGRDKEEEYIAVKIDGRWLLTEVRFK”, 2.08.
In turn, “DDETEYAREASEMWVKLLITGDEEIREEYIDPHAKMDQGEYEYHGREQVSRFSKKLIDTMGVKHFDIKSIEIQGDKVILFMHEHFENRRVDLIFYSRKFDGRWHYRRMEVIHR” displayed a protease stability score of 0.543.
The result for “DDETHEYEEAMELWVKALTTGNEDLLKDLHDPHTLTRINGRTEHGRHTWVEIRRKLGVKHLHIETSRLIDGRVHLHARIHVGDKNLEIIVIIVKVNGRWLTSEINIH” reads 0.951; that for “DDFDRNIEKLMKDLLHNWRTGNEDEFLRLIDPNARLTVGDYESHGREEYARVLRELLEEMRLHQVHIRHVEYFDGQADIDIREDGFINGQRIILTTRIIVVKVNGRWVVKSHVIN”, 0.967; that for “DDHDEELQRIVEIIFRHISTGNFDHLYKYLDPNVRMIIWIGDKNITAHGREHMSEVLHKLWKHLRIKDVDLHDVKSQGEKAIVDTHVHGIIDGKDTHIKTTLIVIIVDGRLKQMEVEVK”, 2.59.
In the case of “DDHDKLLQKLMRFWLWAFLTGDEDHFDEMADPNTRLSSIVNGRDIQLHGREQVNKHFKELRLHHFILRTWSVYDGRVEIDGQMDGEYDGRRIDTRVTIIIVIINGRSTREHLDFK” it was 0.261; in that of “DDHDKLMQDLTSMFVRDLITGDEKSMDELLDPDVKVDINGQETHGRDHFLEILNKNLKEWRVKDVKIEHVEWYGNKAHIRMEVIGNWNGKEHSLDFELHLLIVNGQFKEIRIKIR”, 1.5; in that of “DDHEEEVLRLLHTVLRIMWTGDEDELHRLADPNMKMWINGRKFHGRETAIETLKRMVNEIRIHEIHVKDFDVIGEYAHVDTRVRGTINGKETILNERIIVLVIDGRIKSIRIDLK”, 2.13.
The result for “DDHEHFHREIWRTWLELQLTGDPHRLERLADPHVRFVYGDKVFHGREKMSEHFERENRELGIDHVEVRIKDSRFIDGRVHHDSELIIRVDGRTYKHDVKVIIDKVDGRWNIQKVEIR” reads 1.07.
In turn, “DDHEKDLTDMARRNYHWWKTGDFDRVIDLLDPTTRLIVGDKKFHGWDEFSHALELFRKQLRPNDSKLKREEVYGDKMVIHSHLHGTVDGKEVHHDVIFTFVIIDGRIHLIIIEPR” registered a protease stability score of 0.516.
In the case of “DDHEKIVQHLLEEIIEIWLTGNFEEHLKRFDPDMRLNVNGVEHHGRESNERWFNKQIERYKNATIHHRIESVDVQGDKVHSDGELIYIQGDKIIRTKIIVRLLVVNGRIKRIEIEMI” it was 1.31; in that of “DDHEKLSEEHMRFIRHAIKTGDEETLKELADPDMRINVNGRLFHGWEHFFKIWEHIRRHLRFKDYDIHDFEIYGDKIHADTRVKSRVNGVERIITTEVLIMKVDGRWYNHEVRLH”, 0.71; in that of “DDHEKRLEEYMKHWFENLMTGNEERLHELADPNARFHLHFENHEVDLIGREDIIKWWREFLHRVKNIRHHLDHLEIQGEKSHLDMTLNIDGKEYRVRIIVVIVNGKIHKVIVDIR”, 2.23.
In the case of “DDHERDAERAIKELMHNFETGNEDFLNEMADPNMRVIINGKEHIGWENFRHHLRRVLHELRIKRIHIRQVRVQGEWVNVISEFIGEVDGREHRVETSYILLKVNGRWTLHSMYFE” it was 2.69; in that of “DDHETEMIHWAELFAELIRTGDEEKLDKLLDPNVKIDINGRKFHGRESMRFALKHLRIHHVEIDDLKVQGDKSFWIGFVEGQIDGQRDRRHSTIELLLVNGRIKSVQLEFR”, 1.61.
In the case of “DDHHEELRKFVEELSRARETGDEELIESLIDPHVKINVGDKRLHGRRAVEILLHEWRVHFFHSERMEVYGDKARIEGHMNGEYNGRRHETKLEMYVHKVNGKWILQHFTVE” it was 2.17; in that of “DDHHELLKRMMDIIKEQFLTGDWEEHRRMADPHVKVIINGVQLIGWEHIRRFEEEMRRQWRIHHVEDKDERYFEGRAHVHSEIDGEFDGKREIHHSVIHLHVVNGRLKRLELRFE”, 1.28; in that of “DDHHEVARKIFFHHYNITQTGDEESIERLLDPNVRIIIDGKYIHGWEEILRLIRHIRIHRFNVHRVELQGEKLILDGFTDGSFDGKRITTTIDIYILKIDGRWFIQQIELR”, 1.46.
The sequence “DDHKKLVDEMIRIVLEELKTGNEETFNKLADPNVKVEWNGVDNHGREEVEEWWREYREVLGVDVIHIELKHVDPQGDKARIDGIIVETQGEKHHSFRAHIIIVVVNGRMHSIHERRR” registered a protease stability score of 0.881.
The result for “DDHKKRVDHLLRELLHHWRTGDFEHIYKLADPHVRFHIQIGEFHHEAVGWDEVVRLIQTHLDQLGVDHLRIRRVKSQGDKLYIETESYIGDFRIEFHIIWIVVNGRLKEQRMHIHEG” reads 1.45.
In the case of “DDHRDRLEHHASEFITAMLTGNWERLYQLVDPHVRLEIHVNGRKQHRVGREEFWTQWQKFVEDFGIDHSHLDRMEVIGNKMHAEFNIRVGDKRFILELHVIIVNGRISEVRVDFR” it was 2.15; in that of “DDHSSARKFADEFREMMKTGDSTKADELFDPNVRVEVGDKRYHGREQAVDWIRHLVDRYDHIEIRIDHITVRGDRISIVFTVHYEKNGETTYDRYVMVAVDRNGRAQIKMLRKG”, 2.09; in that of “DDIDEHAETVVDHLIRSQMTGNEELFQHLADPHARLDINGKEYVGRELVSKIITHLRIHFLEIQFLHVQGDKVTIDVKIRGKVDGRTETSDQRLILVKINGKWLLTEIEVG”, 1.03.
The result for “DDIDHFLLEIVLRFIEDNLTGNEDNLRKMADPDTRIFIHIGEKEFRIHGREAWTEWILTIVDHMRMRLNIRRLEWQGDKARITQEQDIHVGNKTHTTEVELHIVIIDGKMHTVHVELR” reads 1.36.
“DDIEEDVKEFLRLMKEMNETGDEHRLTEMADPNVRVHIGDKHFHGREDAERLWRRADVFHHIKIKEYELQGDKLYMNVEVDGKFDGKRIRHDVTEIVTKVNGRWLLRSIRFD” had a protease stability score of 0.577.
“DDIEEILKEAFERLIHDLRTGNEDNLRSLIDPNVRLNWNGQELHGREHVLELLTRIKNLRIEDWTTKDQRYQGDKIEMDGILHTRIGDKEIHLETHIHVRKVDGRWKIEQLDFR” came in with a protease stability score of 2.

Values taken from the NTF2 design screens of Basanta et al. (2020).
